In a protein production outcome set (Wang et al. 2014) one finds protein production data, which are given here for 21 sequences.

This data set can be described thus: label from the status in PepcDB records.
For “MTNIQKRFYKGRVALNVLANNIENAKDIFEAAEGYVVVGVLSKDYPTVEEAVTAMKAYGKEIDDAVSIGLGAGDNRQAAVVAEIAKHYSGSHINQVFPSVGATRANLGGKDSWINSLVSPTGKVGYVNISTGPISAAGEEKAIVPIKTAIALVRDMGGNSLKYFPMKGLAHEEEYRAVAKACAEEGFALEPTGGIDKENFETILRIALEANVEQVIPHVYSSIIDKETGNTKTEDVRELLAVVKKLVDQYA”, the protein production result was “not failed”.

For the sequence “MYETFMKRAIELAKKGLGRVNPNPPVGAVVVKDGRIIAEGFHPYFGGPHAERMAIESARKKGEDLRGATLIVTLEPCDHHGKTPPCTDLIIESGIKTVVIGTRDPNPVSGNGVEKFRNHGIEVIEGVLEEEVKKLCEFFITYVTKKRPFVALKYASTLDGKIADHRGDSKWITDKLRFKVHEMRNIYSAVLVGAGTVLKDNPQLTCRLKEGRNPVRVILDRKGVLSGKVFRVFEENARVIVFTESEEAEYPPHVEKALSDCSVESILRNLYERDIDSVLVEGGSKVFSEFLDHADVVFGFYSTKIFGKGLDVFSGYLSDVSVPPKFKVVNVEFSDSEFLVEMRPCSRE”, the protein production entry is given as “not failed”.

On to “MDDDMDIQQSYPFTVEVMPVPNKVVKGQTVEIRCELKKEGDFSGTLYTIRYFQFEGEGSLKMDNGITFLPNDRYLLENEKFRLYYTAAGDEAHNFIVVVEDNFSNSYELEFDFNNRNVKDDDLTIVPIGNFSPLLKLEHHHHHH”, for which the protein production entry was “failed”.

Take “ASRPHQWQTDEEGVRTGKCSFPVKYLGHVEVDESRGMHICEDAVKRLKATGKKAVKAVLWVSADGLRVVDEKTKDLIVDQTIEKVSFCAPDRNFDRAFSYICRDGTTRRWICHCFMAVKDTGERLSHAVGCAFAACLERKQKR”: the protein production result was “not failed”.

In the case of “MRVTHFFMAAIAVVFVLAGCSTMPKKPDSLTRGDYGYTKEYVSWLIKKEMRENDVTGLSIALVDDQRVVWAQGFGVADEANKVPATPDTIYRVGSISKLFTATAVLQLAEQGKMDIDKPLSTYLPEFSVKSRFPDAGPITPRTLMTHHSGLPSDFLKGMWTNNPEPISNVVNLLKDEYAQYPPNFVFSYSNLGVSLLGNAVERIAGRPYASQIDETVLHPLGMASSSFSTHSDVASRLAKGYRNGKEIGEPQLRDIPAGGLHTNVLDLSRFMEMVFAGGKAGERRILKEETLAEMLSPQNDGVPLDHDFHIGLGWLLTDVGIENAGKVAWHDGATLLYRSQMVILPEQKLGVVVLSNSATAASVVHKVATEALKLAMEAKAGIRQPERSKPVEREADLSPEERQKLAGAYVTPFGTVKVIESGTTLRTEFFGKTFSVVPRNDGRMGLRYRLLGVIPISLGDLDYLGFSTSTVSGHNVLLATAAGKSMLVGEKMEPVLVSEQWQRRVGAYEIANPGDDTMLVDDIRLRYEDGFLRVDYALPLFFDGKLNVSLQPLSDTEAVIRGLGRGMGETIRVVAVNGEEMLQYSGYLLKKKRE”, the protein production result was “failed”.

Consider “MSQAVLATETNRRQLQQIISGLSDGVILIETDKARTLLWANEAALAMHGVSTVEQLGGNLREYARRYALRYRNNHPLGLDSYPINRVAAGETFSDVVVEVQAEIDGEPRHWVHRVRSMILEDRNGAPESLVLILSDATDWASAEQRFEKTFNANPAPAVICRLGDLRYIKVNQGFLEMTGYARDQVIGRSVYELDVLEDAEHKELAVERLGQGATIPQMQAELRLPEGGSKLVIVAGQPLDINDEDCMLFSFMDLEPRRKAEIALRQSEERFAKSFRLTPVPTLVCSAEQQIVDVNEAFLDTCGYSSEELLGKTVQDIGFIAEPQAAEQLFGRLEKSGNVMGLDLKVRKKGAEQVDCVAYADTVLIQDSPCYLLVLMDISERKRSELELVGAIEEVMRDASWFSQTLIEKLANVRNTRSAQAPAVTSAELTTREREVLGLIYQGLADKEIAAQLQLAPNTVRNHVATLYSKLDVHSRGEAIVWARERGLFAGSAG”, for which the protein production result was “failed”.

Consider “MRLRVDVIPGEHLAYPDVVLVVDVIRATTTAAAFLEAGAEALYWTPSLESALAFKDEDVVLAGETGGLKPPRFDLGNSPREALSAQVAGRVVVMSTTNGTKAAHAAARTAKHVLLASLYNAHAAARLARELATEEVAILCAGKEGRAGLDDLYTAGVLAEYLGFLGEVEPEDGARVALAVKRAYPDPLEALSLSAAALALKQVGLEADVPFCAQVAKSAAVPVLRGRVGEALIFKRA”, for which the protein production result is on record as “not failed”.

“METSKKLVIVAVLSITLILTYAYLISIIEGVDYFTALYFSVITITTTGYGDFTPKTFLGRTLTVVYLCVGVGIVMYLFSLIAEFIVEGKFEEFVRLKKMKNKIKTLKDHYIICGYGRLGKVVGEKFIEENIPFIAIDINEDVLKEEYEKYPDKFLYIVGDAKKEEVLKKAKIDKAKGLIATLPSDADNVFLTLTARELNPNILITAKADEKEAIRKLKIAGANRVVSPYLIGGLRMAEVSVRPGILDFLSTFIKIAKDEYEEDIELRKFVIEKDSELAYKSLKDANIRGKTGATILGIRREKEFCINPYPEFILKPGDVIYAFGTEENLKYLENLVKKKKKKL”: the protein production result is “failed”.

Consider “MNLKQAFIDNNSIRLGLSADTWQEAVRLAVQPLIDSKAVTSAYYDAIIASTEKYGPYYVLMPGMAMPHAEAGLGVNRNAFALITLTKPVTFSDGKEVSVLLTLAATDPSIHTTVAIPQIVALFELDNAIERLVACQSPKEVLEMVEESKDSPYLEGMDLNA”, for which the protein production entry is listed as “not failed”.

“MKFTQRLSLRVRLTLIFLILASVTWLLSSFVAWKQTTDNVDELFDTQLMLFAKRLSTLDLNEINAADRMAQTPNKLKHGHVDDDALTFAIFTHDGRMVLNDGDNGEDIPYSYQREGFADGQLVGEDDPWRFVWMTSPDGKYRIVVGQEWEYREDMALAIVAGQLIPWLVALPIMLIIMMVLLGRELAPLNKLALALRMRDPDSEKPLNATGVPSEVRPLVESLNQLFARTHAMMVRERRFTSDAAHELRSPLTALKVQTEVAQLSDDDPQARKKALLQLHSGIDRATRLVDQLLTLSRLDSLDNLQDVAEIPLEDLLQSSVMDIYHTAQQAKIDVRLTLNAHGIKRTGQPLLLSLLVRNLLDNGPGVTPEALARIGERFYRPPGQTATGSGLGLSIVQRIAKLHDMNVEFGNAEQGGFEAKVSW”: the protein production result is “failed”.

Consider “MVQIIFDSKTGNVQRFVNKTGFQQIRKVDEMDHVDTPFVLVTYTTNFGQVPASTQSFLEKYAHLLLGVAASGNKVWGDNFAKSADTISRQYQVPILHKFELSGTSKDVELFTQEVERVVTKSSAKMDPVK”, for which the protein production result is recorded as “not failed”.

As to “AMPIAKAIEEKWGVPAEVVIAQAALESGWGKHVKGNAYFGIKGKGSQGSINFGTHEVINGKKISINDNFASYGGFGDAANGYGEFLNKNKRYREAFKHKDNPVEFAKAIARAGYATDPDYANKLTKIIQSNKFS”, the protein production entry is “not failed”.

As to “MMILAWILVIIIISVITKWVVHLLTQRQSIYLTKLVITTSCIIQFIIVFFLMKAIVHYLAQALDVFYR”, the protein production result is recorded as “failed”.

As to “MSSRSHARPEAVTRIASLAECGETVACMACARYPSCLAHLRLRMKRHFSMLRDFQLADWFTLANAFCGTGAVFAAMRFLQEEHRGDLLLGMALIPLAFVFDALDGHVARWRKASSTLGRELDSLADVISFGVAPAALGYACGMRGGWDWLVLSYFVCCGVSRLARYNVTAEEIAGEADKVPYFEGTPIPTSLLLVILLAVAASIGHIGETLWWGQWQLGPWQFHPLVLLFAVSGSLMISKTLRIPKL”, the protein production result is reported as “failed”.

On to “YENFIIAGHKEPDGDCIGSCLAMSFFLKRKNKNCILMSAGPFKRTEIKEYEHLFTDKLKISDKINPKTTGLIILDCSNFDRVGEIAELISGFNYIIIDHHATNTEKSDTSLIMPEAPSTTYLIQSIIEEIGEKLTKEEADALFFGLCTDTGFFRHLDAGSAEVFAHASRLIEAG”, for which the protein production entry is given as “failed”.

Take “PYNKNGFKVGMKLEGVDPEHQSVYCVLTVAEVCGYRIKLHFDGYSDCYDFWVNADALDIHPVGWCEKTGHKLHPPKGYKEEEFNWQTYLKTCKAQAAPKSLFENQNITVIPSGF”: the protein production result is recorded as “not failed”.

As for “MSQKGEAEGIARIRSAALFYIVAILITLVAVFAVFIPLIVSISSISSNLSNPNASSASAAAGGILSAVIGVIVVAVIVSIVILVFIILSFLRFRDGFSILQAIGRDVGIGKTGTTLILVGAILLIIPFLDIIGIILIFVGQILLGIGIYRIGEIYNNSLTKIGGILVAIPLIDITAFIGMIMTYVGVGQIQREFGMRPPLPPSSQIPSQQTGSGVLRGNGTADLNIYLQTQEQVVSAQILGTNYLTGLIVPNMLQPGFNNLTVNFNVPLNLMPNSIYVIRLNLASGRTLDVNVTFQP”, the protein production result is listed as “failed”.

On to “MAGGYGVRSPGPCVQCLARPMTTPFWPGRERCASLASRDAFAARLFKRQKMESFLVSTGIVALAEMGDKTQLLSLVLAARYRKPIPIILGILIATLVNHGFAGALGGWITGMVGVDLLRWILGLGFIAMAGWMLIPDKLDDAEEAKPVKGALGILGTTIIAFFFAEMGDKTQIATVALAARFHGEVIAVVAGTTFGMMLANAPAVLLGDRFANKMPIALVHKIAAAIFLVLGLLALFNVGG”, for which the protein production result is “failed”.

Turning to “MYLLTFILIRINKYSDKAKKSAILVLLFLSLGAILKILEIADPSVKMDYIIQLVYSLTVFGAFVALSFYIKFLETPPSLTVHHSTKLPKNGGSEPKLVGAYLVSGSRSRIVDLINMIRELNAPILVFTRYPTFYQDLGENIKVIWITQASEDGIPPTKLHVIQDYAIKFAKENKYAVVIIDCVEYLLLYNEFASVFKFLASLKDYLIMMNSALVLAVDEKALDEKYYTLLLNEFEPL”, the protein production result is “failed”.

As to “MSLSRRLTMHWFAQAPANIALIKYMGKKDENSNLPDNSSLSYTLSNLLSSVKLEKLPTKKDIWEPLTIPGAPEFNLSVEAQKRFIDHLVRLKEYFGYVGGFLIQSSNNFPHSSGLASSASSFAALTKCASIALSELTQKPLPSIDEQAQLSRLGSGSSCRSFYAPWALWTGDKVSAIDLPYKDLLHQVIVISSQEKEIPSRVAHKLVKTSPFYETRSERAEANLKLLLNAFENKDWTSIYQICWHEFLDMHQLFKTCEKPFSYITDNTLHILSVIEKFWNEKGDGPVVTMDAGPNVHLLYRSDQTDLARQFKSDHLVGNYDVLEGHHHHHH”, the protein production result is given as “not failed”.

Turning to “MPLKSLKNRLNQHFDLSPRYGSVKKIMPNIVYADGFNPSVGDVVKIEKSDGSECVGMVVVAEKEQFGFTPFNFIEGARAGDKVLFLKEGLNFPVGRNLLGRVLNPLGQVIDNKGALDYERLAPVITTPIAPLKRGLIDEIFSVGVKSIDGLLTCGKGQKLGIFAGSGVGKSTLMGMITRGCLAPIKVIALIGERGREIPEFIEKNLKGDLSSCVLVVATSDDSPLMRKYGAFCAMSVAEYFKNQGLDVLFIMDSVTRFAMAQREIGLALGEPPTSKGYPPSALSLLPQLMERAGKEENKGSITAFFSVLVEGDDLSDPIADQTRSILDGHIVLSRELTDYGIYPPINILNSASRVAKDIISESQNLCARKFRRLYALLKENEMLIRIGSYQMGNDKELDEAIKKKALMEQFLAQDENALQPFETSFQQLEEILR”, the protein production entry was “failed”.
